The data set “crystal structure” deals with the molecule itself. As to the kind of experiment: crystal structure.
Data set [1] has as its target soluble human CD40 extracellular domain (human). As to the kind of experiment: SPR. In general terms: Surface plasmon resonance follows binding to a sensor surface in real time, without labels.

B1: myc tagged form of soluble human CD40L (ligand)
chain: NMGDQNPQIAAHVISEASSKTTSVLQWAEKGYYTMSNNLVTLENGKQLTVKRQGLYYIYAQVTFCSNREASSQAPFIASLCLKSPGRFERILLRAANTHSSAKPCGQQSIHLGGVFELQPGASVFVNVTDPSQVSHGTGFTSFGLLKL
modifications: glycan (3 glycan chains in the model of the trimer)
A word on the stoichiometry N: it is the number of molecules, sites or subunits per partner or assembly. What is called Kd is a measure of binding affinity in units of concentration. The low end stands for higher affinity, the high end for lower affinity. Turning to B1, in the data set “crystal structure”, the “stoichiometry N” value is 3. In addition, in data set [1], the Kd is around 13 µM.

Values taken from PMC3415792 (ACS chemical biology, 2011).
